This note sets out measurements from article PMC11840927, “Frataxin Traps Low Abundance Quaternary Structure to Stimulate Human Fe–S Cluster Biosynthesis” (Biochemistry, 2025).

The target in the assay is T1, NFS1(Δ1–55)-ISD11(S11A)-ACPec complex with N-terminal His6 tag on NFS1 (human | Escherichia coli, UniProt Q9Y697 56-457; Q9HD34 1-91; P0A6A8 1-78, S11A, covalently attached PLP | acyl-4′PPT (assumed mass 523 Da)).
T1 construct: NFS1, human cysteine desulfurase, Δ1–55 (residues 56 to the C-terminus); ISD11 (LYRM superfamily), human, S11A; Escherichia coli acyl-carrier protein (ACPec) associated with NFS1-ISD11; Used uniformly 14N or 15N labelled in the exchange experiments; Calculated masses excluded the N-terminal methionine if present; also called SDAec; His-tagged SDAec; not shown: His6, N-terminal, kept; copies: 2 + …
Description: native MS; complexes formed before the exchange reaction: SDAec with ISCU2 (1:3) or ISCU2 and FXN (1:3:3), IscS with IscU (1:3), 30 min, room temperature, EMR Orbitrap. As to conditions: both partners purified.

B1: FXN (Δ1–81) (natural protein, human, UniProt Q16595 82-210, looked up)
chain: GTLGHPGSLDETTYERLAEETLDSLAEFFEDLADKPYTFEDYDVSFGSGVLTVKLGGDLGTYVINKQTPNKQIWLSSPSSGPKRYDWTGKNWVYSHDGVSLHELLAAELTKALKTKLDLSSLAYSGKDA
notes: frataxin (FXN), human, Δ1–81 (residues 82 to the C-terminus); also called frataxin
Take B1: the binding result was “binds”.

B2: ISCU2 (Δ1–35) (natural protein, human, UniProt Q9H1K1-1 36-167, looked up)
chain: HKKVVDHYENPRNVGSLDKTSKNVGTGLVGAPACGDVMKLQIQVDEKGKIVDARFKTFGCGSAIASSSLATEWVKGKTVEEALTIKNTDIAKELCLPPVKLHCSMLAEDAIKAALADYKLKQEPKKGEAEKK
notes: ISCU2, human Fe–S cluster scaffold protein, Δ1–35 (residues 36 to the C-terminus); Two constructs were made, ISCU2-TEV-GST and ISCU2-TEV-GST-His6; Residues of the TEV site may remain at the C-terminus after cleavage (surmised); also called scaffold protein; source: E. coli BL21(DE3), purified (GST column, TEV digestion, Ni-NTA, cation exchange, Sephacryl S100); not shown: GST, C-terminal, cleaved
B2: the binding result was “binds”.
